The subject of assay [1] is human β2GPI-dependent antiphospholipid antibody. The experiment in a line: Micropanning of mutant domain 1 phage, patient antibodies. The following applies: Table 7B. The class given is binding.
For a further assay, the system named is rabbit anti-human β2GPI. The experiment in a line: Micropanning of mutant domain 1 phage, rabbit antibody. It is filed as binding. On the set-up: key: 0 (<10 colonies) to 4+ (confluent) semiquantitative colony score. The settings on record: Table 7B. The essentials: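 Phage displaying error-prone-PCR mutants of β2GPI domain 1 (aa 1-64, fused to pIII N-terminus) incubated 2 h at RT with protein G-captured rabbit β2GPI-dependent antiphospholipid antibody (2.5 μg/mL); acid-eluted bound phage infected into E. coli. Colonies spotted and scored semiquantitatively 0 to 4+; run on two occasions.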

B1: Dom5: phage displaying wild type (WT) domain 5 (protein)
chain: CKLPVKKATVVYQGERVKIQEKFKNGMLHGDKVSFFCKNKEKKCSYTEDAQCIDGTIEVPKCFKEHSSLAFWKTDASDVKPC
modifications: left off: large carriers
With B1, the Micropan score in assay [1] (antibody 6226), in assay [1] (antibody 6501), in assay [1] (antibody 6632), in assay [1] (antibody 6644), in assay [1] (antibody 6701) and in assay [1] (antibody 7008) was 0 (0 symbolizing <10 colonies) in each case. In addition, the Micropan score with rabbit anti-human β2GPI (1st column) is listed as 4; with rabbit anti-human β2GPI (2nd column), 4; with rabbit anti-human β2GPI (3rd column), 4; in the assay on rabbit anti-human β2GPI (4th column), 4; in the assay with rabbit anti-human β2GPI (5th column) it was 0 (0 symbolizing <10 colonies).

B2: 3C3: phage clone, domain 1 mutant L52P (protein)
chain: GRTCPKPDDLPFSTVVPLKTFYEPGEEITYSCKPGYVSRGGMRKFICPLTGPWPINTLKCTPRV
For B2, the Micropan score in assay [1] (antibody 6226) is 1; in assay [1] (antibody 6501) it was 1; in assay [1] (antibody 6632), 0 (0 symbolizing <10 colonies); in assay [1] (antibody 6644) it was 1; in assay [1] (antibody 6701) it was 1; in assay [1] (antibody 7008), 1. For the same molecule, the Micropan score with rabbit anti-human β2GPI (5th column) is given as 4.

B3: 4A6: phage clone, domain 1 mutant D8G (protein)
chain: GRTCPKPGDLPFSTVVPLKTFYEPGEEITYSCKPGYVSRGGMRKFICPLTGLWPINTLKCTPRV
B3: the Micropan score stood at 2 in assay [1] (antibody 6226); 2 in assay [1] (antibody 6501); 2 in assay [1] (antibody 6632); 3 in assay [1] (antibody 6644); 2 in assay [1] (antibody 6701); 2 in assay [1] (antibody 7008). In the assay with rabbit anti-human β2GPI (5th column), this molecule had a Micropan score of 4.

B4: 4D1: phage clone, domain 1 multiple mutant N56T, R63G (protein)
chain: GRTCPKPDDLPFSTVVPLKTFYEPGEEITYSCKPGYVSRGGMRKFICPLTGLWPITTLKCTPGV
For B4, the Micropan score was found to be 4 in assay [1] (antibody 6226); 2 in assay [1] (antibody 6501); 3 in assay [1] (antibody 6632); 4 in assay [1] (antibody 6644); 4 in assay [1] (antibody 6701); 2 in assay [1] (antibody 7008). The same molecule had a Micropan score in the assay with rabbit anti-human β2GPI (5th column) of 4.

B5: 3G1: phage clone, domain 1 multiple mutant R2W, S38T (protein)
chain: GWTCPKPDDLPFSTVVPLKTFYEPGEEITYSCKPGYVTRGGMRKFICPLTGLWPINTLKCTPRV
As to B5, the Micropan score in assay [1] (antibody 6226), in assay [1] (antibody 6501), in assay [1] (antibody 6632), in assay [1] (antibody 6644), in assay [1] (antibody 6701) and in assay [1] (antibody 7008) was 1 in each case. In the assay with rabbit anti-human β2GPI (5th column), this molecule came in with a Micropan score of 4.

B6: 3A4: phage clone, domain 1 multiple mutant D8A, S13T (protein)
chain: GRTCPKPADLPFTTVVPLKTFYEPGEEITYSCKPGYVSRGGMRKFICPLTGLWPINTLKCTPRV
With B6, the Micropan score in assay [1] (antibody 6226) is reported as 3; in assay [1] (antibody 6501), 3; in assay [1] (antibody 6632), 3; in assay [1] (antibody 6644), 4; in assay [1] (antibody 6701), 3; in assay [1] (antibody 7008), 3. For the same molecule, in the assay with rabbit anti-human β2GPI (5th column), the Micropan score was found to be 4.

B7: SC10: phage clone, domain 1 mutant N56D (protein)
chain: GRTCPKPDDLPFSTVVPLKTFYEPGEEITYSCKPGYVSRGGMRKFICPLTGLWPIDTLKCTPRV
For the molecule B7, the Micropan score is 3 in assay [1] (antibody 6226); 3 in assay [1] (antibody 6501); 3 in assay [1] (antibody 6632); 3 in assay [1] (antibody 6644); 3 in assay [1] (antibody 6701); 4 in assay [1] (antibody 7008). In addition, the Micropan score in the assay on rabbit anti-human β2GPI (1st column), in the assay on rabbit anti-human β2GPI (2nd column), in the assay with rabbit anti-human β2GPI (3rd column) and in the assay with rabbit anti-human β2GPI (4th column) was 4 each time.

B8: 3F12: phage clone, domain 1 multiple mutant L10I, P17Q, Y22C (protein)
chain: GRTCPKPDDIPFSTVVQLKTFCEPGEEITYSCKPGYVSRGGMRKFICPLTGLWPINTLKCTPRV
As for B8, the Micropan score in assay [1] (antibody 6226), in assay [1] (antibody 6501), in assay [1] (antibody 6632), in assay [1] (antibody 6644), in assay [1] (antibody 6701) and in assay [1] (antibody 7008) was 1 each time. This molecule also came in with a Micropan score with rabbit anti-human β2GPI (5th column) of 4.

B9: 4G8: phage clone, domain 1 mutant P11L (protein)
chain: GRTCPKPDDLLFSTVVPLKTFYEPGEEITYSCKPGYVSRGGMRKFICPLTGLWPINTLKCTPRVAETVESCLAKLHTENSFTNVWKDDKTLDRYANYEGCLWNATGVVVCTGDETQCYGTWVPIGLAIPENEGGGSEGGGSEGGGSEGGGTKPPEYGDTPIPGYTYINPLDGTYPPGTEQNPANPNPSLEESQPLNTFMFQNNRFRNRQGALTVYTGTVTQGTDPVKTYYQYTPVSSKAMYDAYWNGKFRDCAFHSGFNEDPFVCEYQGQSSDLPQPPVNAGGGSGGGSGGGSEGGGSEGGGSEGGGSEGGGSGGGSGSGDFDYEKMANANKGAMTENADENALQSDAKGKLDSVATDYGAAIDGFIGDVSGLANGNGATGDFAGSNSQMAQVGDGDNSPLMNNFRQYLPSLPQSVECRPYVFGAGKPYEFSIDCDKINLFRGVFAFLLYVATFMYVFSTFANILRNKES
For the molecule B9, the Micropan score in assay [1] (antibody 6226) amounted to 2; in assay [1] (antibody 6501), 2; in assay [1] (antibody 6632), 2; in assay [1] (antibody 6644) it was 3; in assay [1] (antibody 6701), 2; in assay [1] (antibody 7008), 3. Moreover, the Micropan score in the assay on rabbit anti-human β2GPI (5th column) is 4.

For the origin of these results see patent US6858210B1, “Therapeutic and diagnostic domain 1 β2GPI polypeptides and methods of using same” (La Jolla Pharmaceutical Co., priority 1998, dated 2005).
